Here are results for two molecules from patent publication US20060223757, “Zinc finger binding domains for GNN” (published 2006).

Data set [1] deals with T1, E2C (six-finger Sp1C framework protein) (synthetic construct). Put plainly: EMSA; ±15%; ZBA buffer with ZnCl2, room temperature. A general note: In EMSA bound probe runs differently from free probe, usually more slowly.
The target of data set [2] is T2, E3 (six-finger Sp1C framework protein) (synthetic construct). Put plainly: EMSA; ±15%; about 30-fold lower affinity than E3 target.
Data set [3] addresses T1, E2C (six-finger Sp1C framework protein). Kind of data set: EMSA; ±30%; 3 mismatches to E2C target.
Data set [4] deals with T2, E3 (six-finger Sp1C framework protein). Kind of data set: EMSA; ±10%; ZBA buffer with ZnCl2, room temperature.

T2 sequence (chain, as listed by the source): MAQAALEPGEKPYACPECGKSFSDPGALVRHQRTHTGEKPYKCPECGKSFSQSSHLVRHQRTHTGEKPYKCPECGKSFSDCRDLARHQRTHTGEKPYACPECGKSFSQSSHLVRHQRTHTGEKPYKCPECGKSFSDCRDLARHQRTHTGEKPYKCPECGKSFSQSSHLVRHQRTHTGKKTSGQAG
T1 sequence (chain, as listed by the source): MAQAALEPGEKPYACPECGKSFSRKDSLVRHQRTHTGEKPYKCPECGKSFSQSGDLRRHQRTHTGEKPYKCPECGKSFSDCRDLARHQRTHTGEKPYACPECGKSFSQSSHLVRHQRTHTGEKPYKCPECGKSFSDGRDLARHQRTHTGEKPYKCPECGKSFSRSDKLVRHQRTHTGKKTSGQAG

B1: E2C target site (erbB-2 5'-UTR) (dsDNA)
DNA 1: GGGGCCGGAGCCGCAGTG
DNA 2: CACTGCGGCTCCGGCCCC
As to B1, the Kd (as a rule, the free concentration of one partner at which half of the binding sites on the other are occupied at equilibrium, for simple one-to-one binding) is 0.75 nM in data set [1] and 10 nM in data set [2].

B2: E3 target site (erbB-3 5'-UTR) (dsDNA)
DNA 1: GGAGCCGGAGCCGGAGTC
DNA 2: GACTCCGGCTCCGGCTCC
For the molecule B2, the Kd worked out at 11 nM in data set [3] and 0.35 nM in data set [4].
